Test results published in patent US6380373B1, “Steroid receptor coactivator compositions and methods of use” (Baylor College of Medicine, priority 1995, dated 2002).

Experiments:
GAL4-VP16 = conditions: HeLa cells, UASG element
Experimental: Cells were maintained in Dulbecco's modified Eagle's medium supplemented with 10% (vol/vol) fetal calf serum (Smith, C. L. et al., (1993), Proc. Natl. Acad. Sci. USA 90, 6120-6124). The day before transfection, 10^6 cells were seeded in 100 mm dishes and 4-6 h later switched serum-free medium supplemented with Nutridoma-SR (Boehringer Mannhein). When ER was used for transfections, phenol-red-free medium was used (Smith, C. L. et al., (1993), Proc. Natl. Acad. Sci. USA 90, 6120-6124). HeLa cells were transfected with mammalian expression vectors encoding steroid receptors or other transcription factors along with 5 μg of CAT reporter. Lipofectin (GibcoBRL) was selected for transfection of Hela cells.
Cells were then harvested and proteins prepared as whole-cell extracts by freeze-thaw lysis. The reporter CAT activity in the extract was determined using 100 uCi of [^14C]-chloramphenicol and 4 mM acetyl coenzyme A as substrate and standardized by protein content. Activity of the extract was calculated by determining the percentage of conversion of [^14C]-chloramphenicol to the mono and diacetylated forms (Ausubel, F. M., et al., (1992), Short Protocols In Molecular Biology, New York: Greene Publishing Associates and John Wiley & Sons). […]

hPR = target: T1, hPR (Homo sapiens, UniProt P06401); test: Transient transfection CAT reporter assay, hPRB with PRE2-TATA-CAT in HeLa cells; type: cell-based
T1 construct: expressed in transfected cells; host or cells: HeLa
T1 sequence (P06401 1-933): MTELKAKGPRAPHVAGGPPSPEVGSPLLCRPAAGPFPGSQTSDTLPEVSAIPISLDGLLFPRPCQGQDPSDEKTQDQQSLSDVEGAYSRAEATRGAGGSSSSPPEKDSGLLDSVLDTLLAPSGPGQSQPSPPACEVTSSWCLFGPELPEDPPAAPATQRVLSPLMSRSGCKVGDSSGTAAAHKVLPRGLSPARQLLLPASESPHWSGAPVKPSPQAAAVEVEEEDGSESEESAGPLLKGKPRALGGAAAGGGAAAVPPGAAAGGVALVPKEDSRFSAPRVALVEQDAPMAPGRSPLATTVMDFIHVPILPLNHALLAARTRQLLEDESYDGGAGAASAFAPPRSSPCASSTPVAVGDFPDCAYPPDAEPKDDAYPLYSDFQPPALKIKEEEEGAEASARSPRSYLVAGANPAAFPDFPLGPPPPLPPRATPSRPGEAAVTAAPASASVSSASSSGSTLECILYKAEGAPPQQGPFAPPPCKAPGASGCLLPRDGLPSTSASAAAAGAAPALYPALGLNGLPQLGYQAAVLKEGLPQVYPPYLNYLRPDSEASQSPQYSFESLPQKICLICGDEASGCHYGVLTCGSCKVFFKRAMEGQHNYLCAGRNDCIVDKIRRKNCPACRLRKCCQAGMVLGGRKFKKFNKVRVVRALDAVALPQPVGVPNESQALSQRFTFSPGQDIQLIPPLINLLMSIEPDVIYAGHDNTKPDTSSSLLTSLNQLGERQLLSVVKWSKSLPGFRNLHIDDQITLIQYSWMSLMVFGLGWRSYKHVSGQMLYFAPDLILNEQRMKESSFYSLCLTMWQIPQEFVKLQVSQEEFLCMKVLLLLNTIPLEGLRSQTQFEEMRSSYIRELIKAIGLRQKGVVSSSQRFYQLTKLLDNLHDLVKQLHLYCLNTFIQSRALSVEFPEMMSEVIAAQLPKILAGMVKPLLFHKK
Experimental: (§1) Lipofectin (GibcoBRL) was selected for transfection of Hela cells.
To further investigate the role of SRC-1 in receptor transactivation of target gene expression, transient transfection assays were carried out in mammalian cell lines. HeLa cells were cotransfected with mammalian expression vectors for full-length SRC-1 and hPRB together with a plasmid containing two copies of the progesterone-responsive DNA element (PRE) inserted in front of the TATA box of the E1b adenovirus, linked to the chloramphenicol acetyl transferase (CAT) reporter gene, PRE2-TATA-CAT.
Cells were harvested 42 h after transfection and the chloramphenicol acetyl transferase (CAT) activity determined using 8 μg of protein extract.

E47 = target: T2, E47 (Homo sapiens, UniProt P15923); test: Effect on the transcriptional activity of E47; type: cell-based
T2 sequence (P15923 1-651 isoform P15923-2): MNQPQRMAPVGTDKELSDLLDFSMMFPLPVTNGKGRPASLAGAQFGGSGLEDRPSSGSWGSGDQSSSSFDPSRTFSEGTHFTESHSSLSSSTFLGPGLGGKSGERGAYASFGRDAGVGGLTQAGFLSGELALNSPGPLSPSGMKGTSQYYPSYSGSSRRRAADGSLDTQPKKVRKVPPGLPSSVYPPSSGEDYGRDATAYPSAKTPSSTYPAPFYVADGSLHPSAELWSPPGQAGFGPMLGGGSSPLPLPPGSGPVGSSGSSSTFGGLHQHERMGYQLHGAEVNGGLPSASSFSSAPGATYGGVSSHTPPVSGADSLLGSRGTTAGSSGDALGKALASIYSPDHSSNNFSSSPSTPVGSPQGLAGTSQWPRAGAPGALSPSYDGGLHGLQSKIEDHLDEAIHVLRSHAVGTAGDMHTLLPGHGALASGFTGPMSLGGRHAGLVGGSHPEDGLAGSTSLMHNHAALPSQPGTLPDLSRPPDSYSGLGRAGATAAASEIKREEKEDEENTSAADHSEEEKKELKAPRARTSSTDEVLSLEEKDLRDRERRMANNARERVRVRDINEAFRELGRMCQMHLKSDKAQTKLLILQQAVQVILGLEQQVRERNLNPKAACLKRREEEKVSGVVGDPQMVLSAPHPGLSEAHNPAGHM

E2F = target: T3, E2F (Homo sapiens, UniProt Q01094); test: CAT reporter assay E2F/E2F-tk-CAT in HeLa cells; type: cell-based
T3 construct: expressed in transfected cells; host or cells: HeLa
Experimental: as §1
The CAT activity of the reporter was determined.

T3 sequence (Q01094 whole entry): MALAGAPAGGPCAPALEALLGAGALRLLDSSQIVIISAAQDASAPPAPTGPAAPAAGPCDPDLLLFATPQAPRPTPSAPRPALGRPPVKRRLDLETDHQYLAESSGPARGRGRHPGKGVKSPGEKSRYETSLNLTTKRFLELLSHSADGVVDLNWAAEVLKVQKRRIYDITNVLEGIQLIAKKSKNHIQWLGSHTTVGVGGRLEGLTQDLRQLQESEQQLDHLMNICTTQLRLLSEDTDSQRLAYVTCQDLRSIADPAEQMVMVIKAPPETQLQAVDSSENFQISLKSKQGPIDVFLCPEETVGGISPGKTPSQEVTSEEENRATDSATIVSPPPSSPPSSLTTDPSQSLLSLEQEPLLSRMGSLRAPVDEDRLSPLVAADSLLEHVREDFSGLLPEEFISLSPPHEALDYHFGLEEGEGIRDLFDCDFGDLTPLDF

B1: steroid receptor coactivator-one (SRC-1), full-length (protein)
chain: MSIPRVNPSVNPSISPAHGVARSSTLPPSNSNMVSTRINRQQSSDLHSSSHSNSSNSQGSFGCSPGSQIVANVALNKGQASSQSSKPSLNLNNPPMEGTGISLAQFMSPRRQVTSGLATRPRMPNNSFPPNISTLSSPVGMTSSACNNNNRSYSNIPVTSLQGMNEGPNNSVGFSASSPVLRQMSSQNSPSRLNIQPAKAESKDNKEIASTLNEMIQSDNSSSDGKPLDSGLLHNNDRLSDGDSKYSQTSHKLVQLLTTTAEQQLRHADIDTSCKDVLSCTGTSNSASANSSGGSCPSSHSSLTARHKILHRLLQEGSPSDITTLSVEPDKKDSASTSVSVTGQVQGNSSIKLELDASKKKESKDHQLLRYLLDKDEKDLRSTPNLSLDDVKVKVEKKEQMDPCNTNPTPMTKATPEEIKLEAQSQFTADLDQFDQLLPTLEKAAQLPGLCETDRMDGAVTSVTIKSEILPASLQSATARPTSRLNRLPELELEAIDNQFGQPGTGDQIPWTNNTVTAINQSKSEDQCISSQLDELLCPPTTVEGRNDEKALLEQLVSFLSGKDETELAELDRALGIDKLVQGGGLDVLSERFPPQQATPPLIMEERPNLYSQPYSSPFPTANLPSPFQGMVRQKPSLGTMPVQVTPPRGAFSPGMGMQPRQTLNRPPAAPNQLRLQLQQRLQGQQQLIHQNRQAILNQFAATAPVGINMRSGMQQQITPQPPLNAQMLAQRQRELYSQQHRQRQLIQQQRAMLMRQQSFGNNLPPSSGLPVQTGNPRLPQGAPQQFPYPPNYGTNPGTPPASTSPFSQLAANPEASLANRNSMVSRGMTGNIGGQFGTGINPQMQQNVFQYPGAGMVPQGEANFAPSLSPGSSMVPMPIPPPQSSLLQQTPPASGYQSPDMKAWQQGAIGNNNVFSQAVQNQPTPAQPGVYNNMSITVSMAGGNTNVQNMNPMMAQMQMSSLQMPGMNTVCPEQINDPALRHTGLYCNQLSSTDLLKTEADGTQQVQQVQVFADVQCTVNLVGGDPYLNQPGPLGTQKPTSGPQTPQAQQKSLLQQLLTE
With B1 the “effect on GAL4-VP16 transcriptional activity” value (GAL4-VP16) was “enhanced”, the “effect on reporter construct activity in the absence of PR binding site” value (hPR; ERE2-TATA-CAT reporter with hPRB, with or without ligand) was “no effect” and the “effect on PR transcriptional activity” value (hPR; HeLa cells, 3 μg SRC-1, R5020 2×10^−8 M, PRE2-TATA-CAT) was “enhance”. For the same molecule, the “effect on RU486-antagonized receptor transcriptional activity” value (hPR; HeLa cells, SRC-1 coexpressed, R5020 plus RU486) was “unable to augment and/or recover to any extent”, the “induction over the hormone-induced receptor activity” value (hPR; HeLa cells, full-length SRC-1 cDNA (3 μg) coexpressed with hPR, 2×10^−8 M R5020, mean of seven experiments ± SEM) was 14.0±3.3 fold and the “activity of ligand-free hPR on the reporter” value (hPR; HeLa cells, no hormone, in the absence or presence of SRC-1) was “minimal activity”. For the same molecule, the “enhancement of hormone-induced transcriptional activity” value (hPR; coexpression of SRC-1 with receptor in mammalian cells, summary statements) was > 10 fold, the “effect on E47 transcriptional activity” value (E47) was “did not alter” and the “effect on E2F transcriptional activity” value (E2F) was “did not alter”.
